{
  "source": "patent US20240287172A1",
  "about": "(SCIRHOM, published 2024)",
  "binders": {"B1": {"name": "antibody 3 (antibody, V domains shown)", "VH": "QVTLKESGPGILQPSQTLSLTCSFSGFSLTTFAMGIGWVRQPSGKGLEWLAHIWWDGEKYNNPVLKSRLTISKDTSKNQVFLRIANVDTPDTATYYCARISSIYYIIDNWGQGTSVTVSS", "VL": "DIVLTQSPATLSVTPGHSVSLSCRASQSISNNLHWYQKKSHESPRLLIKYVSQSISGIPSRFSGSGSGTDFTLSINSVETEDFGMYFCQQSYNWPLTFGAGTKLELK", "notes": "mouse IgG, kappa light chain; also called clone #3; purified antibody 3"}},
  "key": {"hiR2-FL-T578A-T7": {"target": "T1, hiR2-FL-T578A-T7 (human, UniProt Q6PJF5 1-856)", "T1 sequence": "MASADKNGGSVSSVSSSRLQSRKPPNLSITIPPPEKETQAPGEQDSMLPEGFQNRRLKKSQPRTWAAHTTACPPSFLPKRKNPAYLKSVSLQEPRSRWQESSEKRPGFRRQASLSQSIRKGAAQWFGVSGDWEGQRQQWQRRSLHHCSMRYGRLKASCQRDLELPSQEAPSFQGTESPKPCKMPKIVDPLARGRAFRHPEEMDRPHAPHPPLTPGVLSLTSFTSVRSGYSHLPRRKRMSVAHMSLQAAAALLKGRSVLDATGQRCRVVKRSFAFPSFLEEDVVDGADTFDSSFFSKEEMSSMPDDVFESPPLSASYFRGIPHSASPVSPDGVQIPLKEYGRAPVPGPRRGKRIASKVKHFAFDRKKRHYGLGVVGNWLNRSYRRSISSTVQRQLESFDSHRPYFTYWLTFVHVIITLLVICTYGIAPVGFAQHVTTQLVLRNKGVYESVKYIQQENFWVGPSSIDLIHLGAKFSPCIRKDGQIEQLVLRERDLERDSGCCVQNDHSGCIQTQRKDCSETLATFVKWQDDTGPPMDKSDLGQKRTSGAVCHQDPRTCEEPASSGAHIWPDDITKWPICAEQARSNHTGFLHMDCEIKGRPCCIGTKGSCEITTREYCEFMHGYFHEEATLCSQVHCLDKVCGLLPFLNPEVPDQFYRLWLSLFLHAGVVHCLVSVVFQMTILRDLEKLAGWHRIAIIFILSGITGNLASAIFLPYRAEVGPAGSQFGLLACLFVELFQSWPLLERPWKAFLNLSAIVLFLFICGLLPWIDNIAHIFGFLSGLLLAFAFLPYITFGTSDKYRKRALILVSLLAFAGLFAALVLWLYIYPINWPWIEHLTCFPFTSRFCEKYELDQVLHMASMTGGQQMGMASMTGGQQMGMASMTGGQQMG", "experiment": "FACS on MEF-DKO cells expressing the variant, 3 µg/ml antibody", "method_in_brief": "(§1)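 Two incubations on ice, each 1 hour: test antibody (3 μg/ml) or FACS buffer only, then PE anti-mouse F(ab′)2 at 1:100 in the dark. Centrifugation and washes used 4° C; staining quantified on a flow cytometer.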"}, "hiR2-FL-Q580A-T7": {"target": "T2, hiR2-FL-Q580A-T7 (human, UniProt Q6PJF5 1-856)", "T2 sequence": "T1 sequence with A578T, Q580A", "experiment": "FACS on MEF-DKO cells expressing the variant, 3 µg/ml antibody", "method_in_brief": "as §1"}},
  "note": "Substitutions are numbered along the chain they refer to.",
  "data": [
    {"binder": "B1", "values": [
      {"measurement": "loss of binding vs wild type", "setting": "hiR2-FL-T578A-T7", "value": "≥ 30", "unit": "%"},
      {"measurement": "loss of binding vs wild type", "setting": "hiR2-FL-Q580A-T7", "value": "≥ 30", "unit": "%"}
    ]}
  ]
}
